Data taken from patent US20220143024A1, “METHODS OF USING IMIPRIDONES” (Board of Regents, The University of Texas System, priority 2019, published 2022).
Values belong to the substance of their own block, whether it stands above or below them.

How the values were obtained:
ACAA2 (human) [1] = molecular target: ACAA2 (human) (UniProt P42765); experiment: BioID-MS +ONC201
ATPAF1 (human) = ATPAF1 (human) (UniProt Q5TC12); experiment: BioID-MS +ONC201
C7orf55 (human) = C7orf55 (human) (UniProt Q96HJ9); experiment: BioID-MS +ONC201
GPT2 (human) = GPT2 (human) (UniProt Q8TD30); experiment: BioID-MS +ONC201
MRPL40 (human) = MRPL40 (human) (UniProt Q9NQ50); experiment: BioID-MS +ONC201
MRPS23 (human) = MRPS23 (human) (UniProt Q9Y3D9); experiment: BioID-MS +ONC201
MRPS36 (human) = MRPS36 (human) (UniProt P82909); experiment: BioID-MS +ONC201
Chain of MRPS36 (human) (P82909 whole entry): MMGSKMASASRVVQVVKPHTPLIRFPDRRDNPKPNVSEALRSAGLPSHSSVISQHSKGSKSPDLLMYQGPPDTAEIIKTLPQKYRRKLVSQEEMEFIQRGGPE

MTRF1L (human) [2] = molecular target: MTRF1L (human) (UniProt Q9UGC7); experiment: BioID-MS +ONC201
Chain of MTRF1L (human) (Q9UGC7 27-380 limits assumed): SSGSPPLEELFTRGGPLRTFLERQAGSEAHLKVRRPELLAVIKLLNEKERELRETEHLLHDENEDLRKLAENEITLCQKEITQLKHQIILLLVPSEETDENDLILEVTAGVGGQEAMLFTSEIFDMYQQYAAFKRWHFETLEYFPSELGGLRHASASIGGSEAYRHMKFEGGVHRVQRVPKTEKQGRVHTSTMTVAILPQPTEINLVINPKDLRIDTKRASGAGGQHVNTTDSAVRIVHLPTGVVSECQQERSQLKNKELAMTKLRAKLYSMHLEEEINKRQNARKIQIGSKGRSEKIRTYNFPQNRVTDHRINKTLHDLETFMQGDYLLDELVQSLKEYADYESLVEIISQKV

NDUFAF2 (human) = NDUFAF2 (human) (UniProt Q8N183); experiment: BioID-MS +ONC201
PPA2 (human) = PPA2 (human) (UniProt Q9H2U2); experiment: BioID-MS +ONC201
PPIF (human) = PPIF (human) (UniProt P30405); experiment: BioID-MS +ONC201
SDHA (human) = SDHA (human) (UniProt P31040); experiment: BioID-MS +ONC201
SDHB (human) = SDHB (human) (UniProt P21912); experiment: BioID-MS +ONC201
TARS2 (human) = TARS2 (human) (UniProt Q9BW92); experiment: BioID-MS +ONC201
Chain of TARS2 (human) (Q9BW92 whole entry): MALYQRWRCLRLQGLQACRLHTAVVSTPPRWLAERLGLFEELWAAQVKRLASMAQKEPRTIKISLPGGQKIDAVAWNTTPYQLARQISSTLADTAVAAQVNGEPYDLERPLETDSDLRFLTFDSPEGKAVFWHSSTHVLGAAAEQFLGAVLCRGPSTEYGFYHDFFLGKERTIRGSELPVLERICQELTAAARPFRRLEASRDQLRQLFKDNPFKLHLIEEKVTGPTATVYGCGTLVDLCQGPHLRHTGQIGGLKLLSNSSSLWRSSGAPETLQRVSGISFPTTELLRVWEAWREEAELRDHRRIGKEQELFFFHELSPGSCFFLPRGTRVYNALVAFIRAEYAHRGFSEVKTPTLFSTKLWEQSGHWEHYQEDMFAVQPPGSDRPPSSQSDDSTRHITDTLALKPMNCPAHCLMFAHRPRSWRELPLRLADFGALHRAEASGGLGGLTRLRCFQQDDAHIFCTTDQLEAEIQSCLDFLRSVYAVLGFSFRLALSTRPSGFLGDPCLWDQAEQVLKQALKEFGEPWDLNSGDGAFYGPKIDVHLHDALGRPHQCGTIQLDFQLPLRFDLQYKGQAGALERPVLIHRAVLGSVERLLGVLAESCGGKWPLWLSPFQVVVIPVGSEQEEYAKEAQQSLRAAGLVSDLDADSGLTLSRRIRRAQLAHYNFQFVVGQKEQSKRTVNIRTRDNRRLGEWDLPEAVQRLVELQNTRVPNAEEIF

ABAT (human) = ABAT (human) (UniProt P80404); experiment: BioID-MS
ACAA2 (human) [3] = molecular target: ACAA2 (human) (UniProt P42765); experiment: BioID-MS
ACO2 (human) = ACO2 (human) (UniProt Q99798); experiment: BioID-MS
AFG3L2 (human) = AFG3L2 (human) (UniProt Q9Y4W6); experiment: BioID-MS
Chain of AFG3L2 (human) (Q9Y4W6 67-797 limits assumed): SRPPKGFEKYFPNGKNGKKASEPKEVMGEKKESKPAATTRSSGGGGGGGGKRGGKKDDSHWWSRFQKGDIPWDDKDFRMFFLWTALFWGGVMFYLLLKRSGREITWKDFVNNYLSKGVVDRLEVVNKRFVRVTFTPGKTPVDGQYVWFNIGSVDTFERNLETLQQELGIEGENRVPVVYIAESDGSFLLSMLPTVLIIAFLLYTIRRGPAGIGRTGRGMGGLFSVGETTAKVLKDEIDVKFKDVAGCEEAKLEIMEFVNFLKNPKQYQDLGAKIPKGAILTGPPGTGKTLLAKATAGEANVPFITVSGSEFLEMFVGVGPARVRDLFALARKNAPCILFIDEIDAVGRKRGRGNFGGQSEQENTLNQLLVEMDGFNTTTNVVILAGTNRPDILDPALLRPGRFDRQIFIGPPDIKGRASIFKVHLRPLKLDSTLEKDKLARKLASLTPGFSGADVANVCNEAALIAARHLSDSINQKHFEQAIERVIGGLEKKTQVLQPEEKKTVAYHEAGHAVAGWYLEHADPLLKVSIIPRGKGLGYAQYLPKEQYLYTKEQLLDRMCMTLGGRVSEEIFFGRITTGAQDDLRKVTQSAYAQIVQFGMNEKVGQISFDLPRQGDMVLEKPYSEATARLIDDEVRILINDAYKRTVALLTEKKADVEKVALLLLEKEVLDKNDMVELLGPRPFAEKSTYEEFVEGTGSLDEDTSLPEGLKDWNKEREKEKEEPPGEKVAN

AK3 (human) = AK3 (human) (UniProt Q9UIJ7); experiment: BioID-MS
ARG2 (human) = ARG2 (human) (UniProt P78540); experiment: BioID-MS
C20orf7 (human) = C20orf7 (human) (UniProt Q5TEU4); experiment: BioID-MS
CLYBL (human) = CLYBL (human) (UniProt Q8N0X4); experiment: BioID-MS
COX5A (human) = COX5A (human) (UniProt P20674); experiment: BioID-MS
CPOX (human) = CPOX (human) (UniProt P36551); experiment: BioID-MS
EARS2 (human) = EARS2 (human) (UniProt Q5JPH6); experiment: BioID-MS
EFHA1 (human) = EFHA1 (human) (UniProt Q8IYU8); experiment: BioID-MS
ETFB (human) = ETFB (human) (UniProt P38117); experiment: BioID-MS
GATC (human) = GATC (human) (UniProt O43716); experiment: BioID-MS
GFM1 (human) = GFM1 (human) (UniProt Q96RP9); experiment: BioID-MS
GLUD1 (human) = GLUD1 (human) (UniProt P00367); experiment: BioID-MS
HARS2 (human) = HARS2 (human) (UniProt P49590); experiment: BioID-MS
K1AA0564 (human) = K1AA0564 (human) (UniProt A3KMH1); experiment: BioID-MS
MARS2 (human) = MARS2 (human) (UniProt Q96GW9); experiment: BioID-MS
Chain of MARS2 (human) (Q96GW9 30-593 limits assumed): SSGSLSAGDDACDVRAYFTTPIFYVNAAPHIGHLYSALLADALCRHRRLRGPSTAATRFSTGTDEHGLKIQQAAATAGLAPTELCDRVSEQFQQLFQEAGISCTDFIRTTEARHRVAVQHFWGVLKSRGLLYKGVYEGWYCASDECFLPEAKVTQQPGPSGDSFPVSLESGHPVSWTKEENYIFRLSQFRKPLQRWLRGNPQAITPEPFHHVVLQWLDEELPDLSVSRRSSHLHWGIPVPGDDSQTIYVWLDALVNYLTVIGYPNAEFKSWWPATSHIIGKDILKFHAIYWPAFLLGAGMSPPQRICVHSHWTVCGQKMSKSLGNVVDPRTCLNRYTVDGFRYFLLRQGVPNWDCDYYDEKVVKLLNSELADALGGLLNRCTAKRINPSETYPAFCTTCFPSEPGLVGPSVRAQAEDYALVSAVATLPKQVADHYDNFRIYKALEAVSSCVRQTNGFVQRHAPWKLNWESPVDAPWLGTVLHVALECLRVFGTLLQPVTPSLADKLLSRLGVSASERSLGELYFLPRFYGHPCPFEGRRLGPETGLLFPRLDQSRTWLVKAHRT

MDH2 (human) = MDH2 (human) (UniProt P40926); experiment: BioID-MS
MRPL19 (human) = MRPL19 (human) (UniProt P49406); experiment: BioID-MS
MRPL48 (human) = MRPL48 (human) (UniProt Q96GC5); experiment: BioID-MS
MRPS7 (human) = MRPS7 (human) (UniProt Q9Y2R9); experiment: BioID-MS
MRRF (human) = MRRF (human) (UniProt Q96E11); experiment: BioID-MS
MTHFD2 (human) = MTHFD2 (human) (UniProt P13995); experiment: BioID-MS
MTRF1L (human) [4] = molecular target: MTRF1L (human) (UniProt Q9UGC7); experiment: BioID-MS
NDUFAF1 (human) = NDUFAF1 (human) (UniProt Q9Y375); experiment: BioID-MS
Chain of NDUFAF1 (human) (Q9Y375 25-327 limits assumed): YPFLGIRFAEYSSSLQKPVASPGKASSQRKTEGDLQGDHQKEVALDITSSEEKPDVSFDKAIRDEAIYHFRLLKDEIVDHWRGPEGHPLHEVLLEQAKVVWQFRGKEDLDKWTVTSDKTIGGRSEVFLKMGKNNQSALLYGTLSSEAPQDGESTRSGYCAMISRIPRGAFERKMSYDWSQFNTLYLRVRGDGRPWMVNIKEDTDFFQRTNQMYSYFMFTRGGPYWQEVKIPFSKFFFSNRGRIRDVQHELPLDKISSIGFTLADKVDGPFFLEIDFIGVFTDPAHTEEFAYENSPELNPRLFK

NDUFAF3 (human) = NDUFAF3 (human) (UniProt Q9BU61); experiment: BioID-MS
NDUFAF4 (human) = NDUFAF4 (human) (UniProt Q9P032); experiment: BioID-MS
Chain of NDUFAF4 (human) (Q9P032 2-175 limits assumed): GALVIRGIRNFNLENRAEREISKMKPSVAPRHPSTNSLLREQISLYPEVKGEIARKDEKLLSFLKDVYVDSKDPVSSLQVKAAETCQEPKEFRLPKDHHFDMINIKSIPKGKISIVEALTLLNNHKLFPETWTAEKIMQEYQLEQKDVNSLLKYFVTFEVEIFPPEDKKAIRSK

NIPSNAP1 (human) = NIPSNAP1 (human) (UniProt Q9BPW8); experiment: BioID-MS
NIPSNAP2 (human) = NIPSNAP2 (human) (UniProt O75323); experiment: BioID-MS
PDK3 (human) = PDK3 (human) (UniProt Q15120); experiment: BioID-MS
Chain of PDK3 (human) (Q15120 whole entry): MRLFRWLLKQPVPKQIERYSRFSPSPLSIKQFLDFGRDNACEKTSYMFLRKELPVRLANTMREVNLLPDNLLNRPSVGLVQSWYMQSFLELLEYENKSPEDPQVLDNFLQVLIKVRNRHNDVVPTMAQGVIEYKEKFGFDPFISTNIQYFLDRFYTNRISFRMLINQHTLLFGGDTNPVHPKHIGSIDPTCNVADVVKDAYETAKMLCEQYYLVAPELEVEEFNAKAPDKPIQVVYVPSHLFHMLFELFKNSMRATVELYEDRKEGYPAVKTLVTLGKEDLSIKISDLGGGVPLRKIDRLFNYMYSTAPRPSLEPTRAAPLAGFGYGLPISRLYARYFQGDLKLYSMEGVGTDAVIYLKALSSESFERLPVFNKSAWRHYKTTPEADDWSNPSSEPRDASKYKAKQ

PMPCA (human) = PMPCA (human) (UniProt Q10713); experiment: BioID-MS
POLG2 (human) = POLG2 (human) (UniProt Q9UHN1); experiment: BioID-MS
PYCR2 (human) = PYCR2 (human) (UniProt Q96C36); experiment: BioID-MS
SLIRP (human) = SLIRP (human) (UniProt Q9GZT3); experiment: BioID-MS
SSBP1 (human) = SSBP1 (human) (UniProt Q04837); experiment: BioID-MS
T1MM44 (human) = T1MM44 (human) (UniProt O43615); experiment: BioID-MS
Chain of T1MM44 (human) (O43615 whole entry, one chain of several): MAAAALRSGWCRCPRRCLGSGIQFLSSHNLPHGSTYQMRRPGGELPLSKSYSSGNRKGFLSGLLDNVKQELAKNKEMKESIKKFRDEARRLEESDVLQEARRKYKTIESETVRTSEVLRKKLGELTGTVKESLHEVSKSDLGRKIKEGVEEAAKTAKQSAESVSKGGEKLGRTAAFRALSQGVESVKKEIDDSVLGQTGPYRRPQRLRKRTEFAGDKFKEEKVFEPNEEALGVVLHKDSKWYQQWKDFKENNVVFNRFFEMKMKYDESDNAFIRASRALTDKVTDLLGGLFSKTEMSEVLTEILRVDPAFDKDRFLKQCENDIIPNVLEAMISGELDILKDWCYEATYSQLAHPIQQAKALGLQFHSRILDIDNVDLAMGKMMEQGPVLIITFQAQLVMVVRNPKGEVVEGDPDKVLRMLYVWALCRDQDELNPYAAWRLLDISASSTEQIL

TAC01 (human) = TAC01 (human) (UniProt Q9BSH4); experiment: BioID-MS
THEM4 (human) = THEM4 (human) (UniProt Q5T1C6); experiment: BioID-MS
THNSL1 (human) = THNSL1 (human) (UniProt Q8IYQ7); experiment: BioID-MS
Chain of THNSL1 (human) (Q8IYQ7 whole entry): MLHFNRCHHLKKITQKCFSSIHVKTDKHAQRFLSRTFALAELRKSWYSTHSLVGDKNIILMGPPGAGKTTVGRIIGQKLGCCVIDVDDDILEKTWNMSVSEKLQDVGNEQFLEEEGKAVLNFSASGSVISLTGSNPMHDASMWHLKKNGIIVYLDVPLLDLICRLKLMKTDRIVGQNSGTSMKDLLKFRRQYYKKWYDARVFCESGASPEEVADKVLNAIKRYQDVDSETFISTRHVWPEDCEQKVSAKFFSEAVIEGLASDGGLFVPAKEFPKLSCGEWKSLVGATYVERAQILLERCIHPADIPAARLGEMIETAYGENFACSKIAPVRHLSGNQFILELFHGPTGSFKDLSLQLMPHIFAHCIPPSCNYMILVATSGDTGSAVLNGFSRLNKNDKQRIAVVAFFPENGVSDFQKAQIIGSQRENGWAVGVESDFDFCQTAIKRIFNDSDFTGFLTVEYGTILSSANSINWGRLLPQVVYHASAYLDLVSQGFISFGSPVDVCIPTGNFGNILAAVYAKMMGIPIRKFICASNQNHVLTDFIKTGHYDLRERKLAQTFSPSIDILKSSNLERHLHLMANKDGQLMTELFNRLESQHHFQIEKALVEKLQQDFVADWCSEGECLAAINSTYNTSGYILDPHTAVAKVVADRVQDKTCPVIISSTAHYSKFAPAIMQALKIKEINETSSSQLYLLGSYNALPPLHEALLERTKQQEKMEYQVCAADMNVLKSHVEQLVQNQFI

UQCRB (human) = UQCRB (human) (UniProt P14927); experiment: BioID-MS

Chain of ACAA2 (human) (P42765 whole entry): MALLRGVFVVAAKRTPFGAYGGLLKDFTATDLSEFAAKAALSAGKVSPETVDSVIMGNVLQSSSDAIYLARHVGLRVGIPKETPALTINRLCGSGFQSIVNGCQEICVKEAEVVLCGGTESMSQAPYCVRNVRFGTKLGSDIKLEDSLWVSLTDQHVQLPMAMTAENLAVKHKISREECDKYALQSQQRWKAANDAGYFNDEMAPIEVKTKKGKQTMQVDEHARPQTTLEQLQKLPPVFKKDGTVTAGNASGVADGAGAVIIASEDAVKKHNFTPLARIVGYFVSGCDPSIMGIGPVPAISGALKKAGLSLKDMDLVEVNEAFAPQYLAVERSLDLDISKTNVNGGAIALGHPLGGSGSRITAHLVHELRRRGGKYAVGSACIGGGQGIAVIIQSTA

Log2 Fold change (vs control) (ACAA2 (human) [1]): -0.88 log2
Log2 Fold change (vs control) (ATPAF1 (human)): -2.17 log2
Log2 Fold change (vs control) (C7orf55 (human)): -1.18 log2
Log2 Fold change (vs control) (MRPL40 (human)): -5.09 log2
Log2 Fold change (vs control) (MRPS23 (human)): -1.58 log2
Log2 Fold change (vs control) (MRPS36 (human)): -2.58 log2
Log2 Fold change (vs control) (MTRF1L (human) [2]): -3.81 log2
Log2 Fold change (vs control) (NDUFAF2 (human)): -7.94 log2
Log2 Fold change (vs control) (PPA2 (human)): -1.38 log2
Log2 Fold change (vs control) (PPIF (human)): -1.81 log2
Log2 Fold change (vs control) (SDHA (human)): -0.94 log2
Log2 Fold change (vs control) (SDHB (human)): -0.82 log2
Log2 Fold change (vs control) (TARS2 (human)): -1.95 log2
Substance: FlagBirA-ClpP (WT) (from UniProt P06709 1-321; Q16740 57-277) (enzyme)
Log2 Fold change (vs control) (GPT2 (human)): -3.7 log2

Log2 Fold change (vs control) (ABAT (human)): -3.58 log2
Log2 Fold change (vs control) (ACAA2 (human) [3]): -0.92 log2
Log2 Fold change (vs control) (ACO2 (human)): -0.29 log2
Log2 Fold change (vs control) (AFG3L2 (human)): 0.43 log2
Log2 Fold change (vs control) (AK3 (human)): -0.28 log2
Log2 Fold change (vs control) (ARG2 (human)): 0.78 log2
Log2 Fold change (vs control) (C20orf7 (human)): -0.06 log2
Log2 Fold change (vs control) (CLYBL (human)): -3.17 log2
Log2 Fold change (vs control) (COX5A (human)): 0.45 log2
Log2 Fold change (vs control) (CPOX (human)): 0.88 log2
Log2 Fold change (vs control) (EARS2 (human)): -0.17 log2
Log2 Fold change (vs control) (EFHA1 (human)): -4.17 log2
Log2 Fold change (vs control) (ETFB (human)): 0.4 log2
Log2 Fold change (vs control) (GATC (human)): -0.05 log2
Log2 Fold change (vs control) (GFM1 (human)): -0.26 log2
Log2 Fold change (vs control) (GLUD1 (human)): -0.39 log2
Log2 Fold change (vs control) (HARS2 (human)): -0.49 log2
Log2 Fold change (vs control) (K1AA0564 (human)): 0.29 log2
Log2 Fold change (vs control) (MARS2 (human)): 0.23 log2
Log2 Fold change (vs control) (MDH2 (human)): -0.03 log2
Log2 Fold change (vs control) (MRPL19 (human)): -0.97 log2
Log2 Fold change (vs control) (MRPL48 (human)): 0.15 log2
Log2 Fold change (vs control) (MRPS7 (human)): 0.71 log2
Log2 Fold change (vs control) (MRRF (human)): -0.1 log2
Log2 Fold change (vs control) (MTHFD2 (human)): 0.22 log2
Log2 Fold change (vs control) (MTRF1L (human) [4]): 0.51 log2
Log2 Fold change (vs control) (NDUFAF1 (human)): -4.32 log2
Log2 Fold change (vs control) (NDUFAF3 (human)): 0.46 log2
Log2 Fold change (vs control) (NDUFAF4 (human)): 1.06 log2
Log2 Fold change (vs control) (NIPSNAP1 (human)): 0.11 log2
Log2 Fold change (vs control) (NIPSNAP2 (human)): 0.61 log2
Log2 Fold change (vs control) (PDK3 (human)): 0.6 log2
Log2 Fold change (vs control) (PMPCA (human)): 0.15 log2
Log2 Fold change (vs control) (POLG2 (human)): -0.89 log2
Log2 Fold change (vs control) (PYCR2 (human)): 0.26 log2
Log2 Fold change (vs control) (SLIRP (human)): 0.25 log2
Log2 Fold change (vs control) (SSBP1 (human)): 0.89 log2
Log2 Fold change (vs control) (T1MM44 (human)): -0.12 log2
Log2 Fold change (vs control) (TAC01 (human)): 0.07 log2
Log2 Fold change (vs control) (THEM4 (human)): -0.17 log2
Log2 Fold change (vs control) (THNSL1 (human)): 0.03 log2
Log2 Fold change (vs control) (UQCRB (human)): -2.38 log2
Substance: FlagBirA-ClpP (Y118A) (from UniProt P06709 1-321; Q16740 57-277) (enzyme)
